Experimental data: patent US20120094899A1 (Takeda / Millennium, published 2012)
Non-standard residues stand in square brackets, D forms with d. No end group written: not given here. *: point of attachment. Acetyl(2-(piperazin-1-yl)) = O=C(CN1CCNCC1)*; PEG 20 kDa = methoxypolyethylene glycol 20k; 2Nal = N[C@@H](Cc1ccc2ccccc2c1)C(=O)O; Arg(Me) = CNC(=N)NCCC[C@H](N)C(=O)O; NMeY = CN[C@@H](Cc1ccc(O)cc1)C(=O)O; NMeR = CN[C@@H](CCCNC(=N)N)C(=O)O; Cha = N[C@@H](CC1CCCCC1)C(=O)O; NMeL = CN[C@@H](CC(C)C)C(=O)O; NMeA = CN[C@@H](C)C(=O)O; βAla = NCCC(=O)O

T1: Human FM3 (human, UniProt Q9HB89 1-426)
T1 construct: whole, on cells; Assayed as the membrane fraction of FM3-expressing CHO cells (1.2 mg/mL protein); also called NMUR1; FM3 receptor
T1 sequence (looked up): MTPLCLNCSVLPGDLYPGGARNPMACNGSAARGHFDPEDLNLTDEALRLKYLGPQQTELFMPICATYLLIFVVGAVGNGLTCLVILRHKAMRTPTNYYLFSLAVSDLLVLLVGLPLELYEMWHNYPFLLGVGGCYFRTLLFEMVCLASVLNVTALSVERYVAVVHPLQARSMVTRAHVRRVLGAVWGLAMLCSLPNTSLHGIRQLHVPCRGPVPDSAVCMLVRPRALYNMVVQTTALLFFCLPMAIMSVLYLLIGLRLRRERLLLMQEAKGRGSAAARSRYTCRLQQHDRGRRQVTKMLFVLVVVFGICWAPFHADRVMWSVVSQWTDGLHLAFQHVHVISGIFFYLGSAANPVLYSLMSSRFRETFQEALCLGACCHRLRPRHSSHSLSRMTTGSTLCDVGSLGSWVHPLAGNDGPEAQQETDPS

T2: Human FM3 (human), Q9HB89
T2 chain: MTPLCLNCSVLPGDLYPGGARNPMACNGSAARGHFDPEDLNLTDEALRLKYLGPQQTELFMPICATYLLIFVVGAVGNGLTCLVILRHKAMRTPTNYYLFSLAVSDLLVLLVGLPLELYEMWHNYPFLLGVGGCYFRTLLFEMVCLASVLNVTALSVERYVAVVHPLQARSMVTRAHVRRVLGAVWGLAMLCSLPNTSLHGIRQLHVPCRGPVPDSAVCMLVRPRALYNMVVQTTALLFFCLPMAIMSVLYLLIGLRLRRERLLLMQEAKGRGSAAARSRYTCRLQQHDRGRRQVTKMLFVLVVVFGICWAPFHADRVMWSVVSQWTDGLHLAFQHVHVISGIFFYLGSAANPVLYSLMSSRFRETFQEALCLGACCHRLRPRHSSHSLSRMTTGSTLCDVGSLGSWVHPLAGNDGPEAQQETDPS


Columns and labels:
Human FM3 = molecular target: T1, Human FM3; test: displacement of 125I-NMU8 from human FM3 CHO membrane fraction; IC50 relative to NMU-8;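 further: binding reaction run for 70 min at 25 °C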
Experimental: (§1) 15 mL of homogenized buffer (10 mM NaHCO₃ (pH 7.4), 5 mM EDTA, protease inhibitor=0.5 mM PMSF, 10 μg/mL Pepstatin A, 20 μg/mL Leupeptin, and 4 μg/mL E-64) was added to the obtained cell pellets, the cellular membrane was disrupted using a polytron homogenizer (Kinematica GmbH), centrifugation was conducted for 10 minutes at 1,000 g at 4° C., and the supernatant was collected. This process was further repeated twice, and ultracentrifugation was conducted for 60 minutes at 30,000 rpm at 4° C. Thereafter, 8 mL of homogenized buffer was added to the pellets and suspended homogeneously to prepare a membrane fraction. The protein concentration of the FM3-expressing CHO cellular membrane fraction was 1.2 mg/mL, and the protein concentration of the TGR1-expressing CHO cellular membrane fraction was 1.1 mg/mL.
(§2) Specifically, each of the NMU derivatives and PEG conjugates was dissolved in DMSO so as to prepare 2 μL of each dilution series of the NMU derivatives and PEG conjugates. […] The resulting product was thoroughly mixed, and then a reaction was carried out at 25° C. for 70 minutes.

human TGR1 = molecular target: T3, human TGR1 (human, UniProt Q9GZQ4 1-415); test: displacement of 125I-NMU8 from human TGR1 CHO membrane fraction; IC50 relative to NMU-8;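 further: competitive binding on TGR1-expressing CHO cell membranes, with compounds tested as DMSO dilution series and incubated for 70 min at 25 °C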
T3 construct: whole, on cells; Assayed as the membrane fraction of TGR1-expressing CHO cells (1.1 mg/mL protein); also called NMUR2; TGR1 receptor
Experimental: as §1, §2

[1] = molecular target: T2, Human FM3 (human), Q9HB89; test: displacement of 125I-NMU8 from human FM3 CHO membrane fraction; IC50 relative to NMU-8; conditions: remark: other sources report otherwise

T3 sequence (Q9GZQ4 whole entry): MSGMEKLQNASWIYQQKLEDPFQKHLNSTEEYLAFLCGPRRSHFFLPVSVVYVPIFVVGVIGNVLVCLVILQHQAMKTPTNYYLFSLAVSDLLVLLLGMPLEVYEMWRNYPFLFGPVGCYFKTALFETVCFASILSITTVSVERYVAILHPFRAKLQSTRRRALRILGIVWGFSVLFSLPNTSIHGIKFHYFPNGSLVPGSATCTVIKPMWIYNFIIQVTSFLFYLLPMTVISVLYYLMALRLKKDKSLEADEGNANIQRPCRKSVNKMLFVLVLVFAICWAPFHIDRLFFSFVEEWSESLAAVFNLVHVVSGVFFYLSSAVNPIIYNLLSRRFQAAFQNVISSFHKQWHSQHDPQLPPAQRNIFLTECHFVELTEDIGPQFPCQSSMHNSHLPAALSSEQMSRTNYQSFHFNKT

IC50 ratio (Human FM3)	IC50 ratio (human TGR1)	IC50 ratio (ratio to NMU-8 (=1)) [1]	Binder
10000 ratio to NMU-8 (=1)	27 ratio to NMU-8 (=1)		{mPEG 20 kDa-Acetyl(2-(piperazin-1-yl))}-Y[2Nal]LFR[NMeA]RN-NH2 (X stands for Nal(2); also called PEG20k-NpipAc-Nal(2)2,NMeAla6-NMU8) [PEG20k-NpipAc0,Nal(2)2,NMeAla6-NMU-8 (Compound V)]
83 ratio to NMU-8 (=1)	240 ratio to NMU-8 (=1)		{mPEG 20 kDa-βAla}-[NMeY]F[NMeL]F[NMeR]PRN-NH2 [PEG20k-NH-β-Ala0,NMeTyr1,NMeLeu3,NMeArg5-NMU-8 (Compound P)]
0.55 ratio to NMU-8 (=1)	9.9 ratio to NMU-8 (=1)		[βAla]YF[Cha]FRPRN-NH2 (N-terminus assumed; SMILES N=C(N)NCCC[C@H](NC(=O)[C@@H]1CCCN1C(=O)[C@H](CCCNC(=N)N)NC(=O)[C@H](Cc1ccccc1)NC(=O)[C@H](CC1CCCCC1)NC(=O)[C@H](Cc1ccccc1)NC(=O)[C@H](Cc1ccc(O)cc1)NC(=O)CCN)C(=O)N[C@@H](CC(N)=O)C(N)=O, X stands for Cha) [β-Ala0,Cha3-NMU-8 (Compound 6)]
6.3 ratio to NMU-8 (=1)	3.6 ratio to NMU-8 (=1)		[βAla]YFLFRP[Arg(Me)]N-NH2 (N-terminus assumed; SMILES CNC(=N)NCCC[C@H](NC(=O)[C@@H]1CCCN1C(=O)[C@H](CCCNC(=N)N)NC(=O)[C@H](Cc1ccccc1)NC(=O)[C@H](CC(C)C)NC(=O)[C@H](Cc1ccccc1)NC(=O)[C@H](Cc1ccc(O)cc1)NC(=O)CCN)C(=O)N[C@@H](CC(N)=O)C(N)=O) [β-Ala0,Arg(Me)7-NMU-8 (Compound 14)]
75 ratio to NMU-8 (=1)	170 ratio to NMU-8 (=1)		{mPEG 20 kDa-βAla}-YF[NMeL]FRP[NMeR]N-NH2 [PEG20k-NH-β-Ala0,NMeLeu3,NMeArg7-NMU-8 (Compound O)]
290 ratio to NMU-8 (=1)	63 ratio to NMU-8 (=1)		{mPEG 30 kDa-βAla}-YFLFRP[Arg(Me)]N-NH2 [PEG30k-NH-β-Ala0,Arg(Me)7-NMU-8 (Compound N)]
900 ratio to NMU-8 (=1)	1.9 ratio to NMU-8 (=1)		{Acetyl(2-(piperazin-1-yl))}-YWLFRARN-NH2 (SMILES CC(C)C[C@H](NC(=O)[C@H](Cc1c[nH]c2ccccc12)NC(=O)[C@H](Cc1ccc(O)cc1)NC(=O)CN1CCNCC1)C(=O)N[C@@H](Cc1ccccc1)C(=O)N[C@@H](CCCNC(=N)N)C(=O)N[C@@H](C)C(=O)N[C@@H](CCCNC(=N)N)C(=O)N[C@@H](CC(N)=O)C(N)=O, also called 2-(piperazin-1-yl)acetyl-[Trp2,Ala6]-NMU8) [NpipAc0,Trp2,Ala6-NMU-8 (Compound 20)]
1600 ratio to NMU-8 (=1)	47 ratio to NMU-8 (=1)		{PEG 20 kDa-βAla}-YWLFR[NMeA]RN-NH2 [PEG20k-NH-β-Ala0,Trp2,NMeAla6-NMU-8 (Compound Q)]
99 ratio to NMU-8 (=1)	1.7 ratio to NMU-8 (=1)		{Acetyl(2-(piperazin-1-yl))}-Y[2Nal]LFR[NMeA]RN-NH2 (SMILES CC(C)C[C@H](NC(=O)[C@H](Cc1ccc2ccccc2c1)NC(=O)[C@H](Cc1ccc(O)cc1)NC(=O)CN1CCNCC1)C(=O)N[C@@H](Cc1ccccc1)C(=O)N[C@@H](CCCNC(=N)N)C(=O)N(C)[C@@H](C)C(=O)N[C@@H](CCCNC(=N)N)C(=O)N[C@@H](CC(N)=O)C(N)=O, X stands for Nal(2); also called 2-(piperazin-1-yl)acetyl-[Nal(2)2,NMeAla6]-NMU8) [NpipAc0,Nal(2)2,NMeAla6-NMU-8 (Compound 22)]
9 ratio to NMU-8 (=1)	29 ratio to NMU-8 (=1)		{mPEG 30 kDa-βAla}-YFLF[NMeR]PRN-NH2 [PEG30k-NH-β-Ala0,NMeArg5-NMU-8 (Compound M)]
	0.19 ratio to NMU-8 (=1)	280	{Acetyl(2-(piperazin-1-yl))}-FWLFRARN-NH2 (SMILES CC(C)C[C@H](NC(=O)[C@H](Cc1c[nH]c2ccccc12)NC(=O)[C@H](Cc1ccccc1)NC(=O)CN1CCNCC1)C(=O)N[C@@H](Cc1ccccc1)C(=O)N[C@@H](CCCNC(=N)N)C(=O)N[C@@H](C)C(=O)N[C@@H](CCCNC(=N)N)C(=O)N[C@@H](CC(N)=O)C(N)=O, also called 2-(piperazin-1-yl)acetyl-[Phe1,Trp2,Ala6]-NMU-8) [NpipAc0,Phe1,Trp2,Ala6-NMU-8 (Compound 11)]
	34 ratio to NMU-8 (=1)	11000	{PEG 20 kDa-Acetyl(2-(piperazin-1-yl))}-FWLFRARN-NH2 (also called PEG20k-NPipAc-Phe1, Trp2,Ala6-NMU-8) [PEG20k-NpipAc0,Phe1,Trp2,Ala6-NMU-8 (Compound K)]
8.6 ratio to NMU-8 (=1)	19 ratio to NMU-8 (=1)		[βAla]YF[NMeL]FRP[NMeR]N-NH2 (N-terminus assumed; SMILES CC(C)C[C@@H](C(=O)N[C@@H](Cc1ccccc1)C(=O)N[C@@H](CCCNC(=N)N)C(=O)N1CCC[C@H]1C(=O)N(C)[C@@H](CCCNC(=N)N)C(=O)N[C@@H](CC(N)=O)C(N)=O)N(C)C(=O)[C@H](Cc1ccccc1)NC(=O)[C@H](Cc1ccc(O)cc1)NC(=O)CCN) [β-Ala0,NMeLeu3,NMeArg7-NMU-8 (Compound 15)]
1.3 ratio to NMU-8 (=1)	11 ratio to NMU-8 (=1)		{mPEG 30 kDa-βAla}-YF[Cha]FRPRN-NH2 (X stands for Cha; also called PEG-NH-β-Ala0,Cha3-NMU-8) [PEG30k-NH-β-Ala0,Cha3-NMU-8 (Compound F)]
0.59 ratio to NMU-8 (=1)	3.8 ratio to NMU-8 (=1)		[βAla]PFLFRPRN-NH2 (N-terminus assumed; SMILES CC(C)C[C@H](NC(=O)[C@H](Cc1ccccc1)NC(=O)[C@@H]1CCCN1C(=O)CCN)C(=O)N[C@@H](Cc1ccccc1)C(=O)N[C@@H](CCCNC(=N)N)C(=O)N1CCC[C@H]1C(=O)N[C@@H](CCCNC(=N)N)C(=O)N[C@@H](CC(N)=O)C(N)=O) [β-Ala0,Pro1-NMU-8 (Compound 8)]
0.43 ratio to NMU-8 (=1)	0.37 ratio to NMU-8 (=1)		[βAla]YFVFRPRN-NH2 (N-terminus assumed; SMILES CC(C)[C@H](NC(=O)[C@H](Cc1ccccc1)NC(=O)[C@H](Cc1ccc(O)cc1)NC(=O)CCN)C(=O)N[C@@H](Cc1ccccc1)C(=O)N[C@@H](CCCNC(=N)N)C(=O)N1CCC[C@H]1C(=O)N[C@@H](CCCNC(=N)N)C(=O)N[C@@H](CC(N)=O)C(N)=O) [β-Ala0,Val3-NMU-8 (Compound 4)]
0.44 ratio to NMU-8 (=1)	0.17 ratio to NMU-8 (=1)		[βAla]YYLFRPRN-NH2 (N-terminus assumed; SMILES CC(C)C[C@H](NC(=O)[C@H](Cc1ccc(O)cc1)NC(=O)[C@H](Cc1ccc(O)cc1)NC(=O)CCN)C(=O)N[C@@H](Cc1ccccc1)C(=O)N[C@@H](CCCNC(=N)N)C(=O)N1CCC[C@H]1C(=O)N[C@@H](CCCNC(=N)N)C(=O)N[C@@H](CC(N)=O)C(N)=O, also called β-Ala0,Try2-NMU-8) [β-Ala0,Tyr2-NMU-8 (Compound 5)]
